According to the supplement of paper PMC9112550, “Optimization of the antimicrobial peptide Bac7 by deep mutational scanning” (BMC Biology, 2022):

System: Escherichia coli TOP10
Experiment: shrunken log2 fold change of peptide-encoding DNA abundance (4.5 h post-induction vs induction); higher = less antimicrobial activity (less host growth inhibition)
Settings: time post-induction: 4.5 h; library: site-saturation at positions 5, 18, 19, 20
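Note: peptides expressed intracellularly from a pBAD plasmid library in pooled LB shake-flask culture, induced with 0.3% L-arabinose, DNA abundance read by NGS, three biological replicates, DESeq2 with apeglm shrinkage.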

Q: How did the “shrunken log2 fold change” value turn out when RRIRHRPPRLPRPRPRPEAFPRP was run?
A: Its value is -0.0165.

Q: RRIRERPPRLPRPRPRPQQHPRP was tested. Which “shrunken log2 fold change” value did it give?
A: The value was -0.301.

Q: How did the “shrunken log2 fold change” value turn out when RRIRMRPPRLPRPRPRPVGQPRP was run?
A: The value was -0.00911.

Q: Which “shrunken log2 fold change” value does the source give for RRIRPRPPRLPRPRPRPRGQPRP here?
A: The value was 0.204.

Q: With RRIRFRPPRLPRPRPRPMECPRP as the sequence, how does the “shrunken log2 fold change” value read?
A: Its value is -0.0638.

Q: With RRIRLRPPRLPRPRPRPGPKPRP as the sequence, how does the “shrunken log2 fold change” value read?
A: The value was 0.352.

Q: Which “shrunken log2 fold change” value does the source give for RRIRTRPPRLPRPRPRPPPKPRP here?
A: The value was 0.82.

Q: For RRIRNRPPRLPRPRPRPLSMPRP, which “shrunken log2 fold change” value is on record?
A: The value was -0.012.

Q: How did the “shrunken log2 fold change” value turn out when RRIRQRPPRLPRPRPRPFPLPRP was run?
A: The value was -0.0585.

Q: With RRIRGRPPRLPRPRPRPVTCPRP as the sequence, how does the “shrunken log2 fold change” value read?
A: The value was 0.146.

Q: Which “shrunken log2 fold change” value does the source give for RRIRVRPPRLPRPRPRPMSGPRP here?
A: Its value is -0.0469.

Q: Which “shrunken log2 fold change” value does the source give for RRIRCRPPRLPRPRPRPMDYPRP here?
A: Its value is -0.181.

Q: RRIRIRPPRLPRPRPRPVPPPRP was tested. Which “shrunken log2 fold change” value did it give?
A: The value was 0.144.

Q: Which “shrunken log2 fold change” value does the source give for RRIRHRPPRLPRPRPRPHMQPRP here?
A: Its value is -0.616.

Q: With RRIRSRPPRLPRPRPRPNEVPRP as the sequence, how does the “shrunken log2 fold change” value read?
A: The value was -0.131.

Q: Which “shrunken log2 fold change” value does the source give for RRIRERPPRLPRPRPRPSEPPRP here?
A: Its value is 0.227.

Q: How did the “shrunken log2 fold change” value turn out when RRIRCRPPRLPRPRPRPGQRPRP was run?
A: Its value is 0.0965.

Q: How did the “shrunken log2 fold change” value turn out when RRIRQRPPRLPRPRPRPVWFPRP was run?
A: The value was 0.111.

Q: With RRIRPRPPRLPRPRPRPEWIPRP as the sequence, how does the “shrunken log2 fold change” value read?
A: The value was -0.0215.

Q: How did the “shrunken log2 fold change” value turn out when RRIRARPPRLPRPRPRPLDTPRP was run?
A: The value was 0.39.

Q: With RRIRLRPPRLPRPRPRPDYQPRP as the sequence, how does the “shrunken log2 fold change” value read?
A: Its value is -0.137.

Q: With RRIRSRPPRLPRPRPRPERFPRP as the sequence, how does the “shrunken log2 fold change” value read?
A: Its value is 0.196.

Q: How did the “shrunken log2 fold change” value turn out when RRIRFRPPRLPRPRPRPTEPPRP was run?
A: Its value is 0.00236.

Q: For RRIRTRPPRLPRPRPRPPFNPRP, which “shrunken log2 fold change” value is on record?
A: The value was 0.0539.

Q: How did the “shrunken log2 fold change” value turn out when RRIRGRPPRLPRPRPRPIHWPRP was run?
A: The value was 0.306.

Q: With RRIRWRPPRLPRPRPRPKIEPRP as the sequence, how does the “shrunken log2 fold change” value read?
A: The value was -0.0252.

Q: How did the “shrunken log2 fold change” value turn out when RRIRMRPPRLPRPRPRPRPEPRP was run?
A: The value was 1.35.

Q: RRIRGRPPRLPRPRPRPVTLPRP was tested. Which “shrunken log2 fold change” value did it give?
A: The value was 0.149.

Q: Which “shrunken log2 fold change” value does the source give for RRIRMRPPRLPRPRPRPSFAPRP here?
A: The value was 0.301.

Q: For RRIRMRPPRLPRPRPRPSACPRP, which “shrunken log2 fold change” value is on record?
A: The value was 1.99.

Q: Which “shrunken log2 fold change” value does the source give for RRIRGRPPRLPRPRPRPTDEPRP here?
A: The value was 0.573.

Q: RRIRIRPPRLPRPRPRPKMSPRP was tested. Which “shrunken log2 fold change” value did it give?
A: The value was -0.327.

Q: With RRIRGRPPRLPRPRPRPREAPRP as the sequence, how does the “shrunken log2 fold change” value read?
A: The value was 1.31.

Q: With RRIRDRPPRLPRPRPRPGNGPRP as the sequence, how does the “shrunken log2 fold change” value read?
A: The value was 0.12.

Q: RRIRQRPPRLPRPRPRPMIEPRP was tested. Which “shrunken log2 fold change” value did it give?
A: Its value is -0.118.

Q: How did the “shrunken log2 fold change” value turn out when RRIRFRPPRLPRPRPRPHSKPRP was run?
A: Its value is -0.327.

Q: For RRIRFRPPRLPRPRPRPVINPRP, which “shrunken log2 fold change” value is on record?
A: The value was -0.816.

Q: Which “shrunken log2 fold change” value does the source give for RRIRNRPPRLPRPRPRPFQHPRP here?
A: The value was -0.00968.

Q: How did the “shrunken log2 fold change” value turn out when RRIRQRPPRLPRPRPRPSTMPRP was run?
A: The value was 0.0933.

Q: Which “shrunken log2 fold change” value does the source give for RRIRKRPPRLPRPRPRPVSIPRP here?
A: The value was -0.0178.

Q: How did the “shrunken log2 fold change” value turn out when RRIRGRPPRLPRPRPRPNMEPRP was run?
A: Its value is 0.22.

Q: How did the “shrunken log2 fold change” value turn out when RRIRERPPRLPRPRPRPWKVPRP was run?
A: The value was -0.0109.

Q: How did the “shrunken log2 fold change” value turn out when RRIRIRPPRLPRPRPRPDRSPRP was run?
A: Its value is -0.364.

Q: With RRIRFRPPRLPRPRPRPVFHPRP as the sequence, how does the “shrunken log2 fold change” value read?
A: Its value is -0.598.

Q: For RRIRFRPPRLPRPRPRPWQDPRP, which “shrunken log2 fold change” value is on record?
A: Its value is -0.00804.

Q: RRIRLRPPRLPRPRPRPFFWPRP was tested. Which “shrunken log2 fold change” value did it give?
A: The value was 0.296.

Q: With RRIRNRPPRLPRPRPRPSYTPRP as the sequence, how does the “shrunken log2 fold change” value read?
A: Its value is -1.13.

Q: RRIRGRPPRLPRPRPRPFFIPRP was tested. Which “shrunken log2 fold change” value did it give?
A: The value was 0.0612.

Q: How did the “shrunken log2 fold change” value turn out when RRIRIRPPRLPRPRPRPMMAPRP was run?
A: Its value is 0.0709.

Q: How did the “shrunken log2 fold change” value turn out when RRIRKRPPRLPRPRPRPDIMPRP was run?
A: Its value is 1.57.

Q: For RRIRRRPPRLPRPRPRPEGYPRP, which “shrunken log2 fold change” value is on record?
A: Its value is 0.202.

Q: For RRIRMRPPRLPRPRPRPFYMPRP, which “shrunken log2 fold change” value is on record?
A: Its value is -0.054.

Q: With RRIRQRPPRLPRPRPRPPGVPRP as the sequence, how does the “shrunken log2 fold change” value read?
A: Its value is 0.462.

Q: RRIRERPPRLPRPRPRPQDEPRP was tested. Which “shrunken log2 fold change” value did it give?
A: Its value is -0.941.

Q: Which “shrunken log2 fold change” value does the source give for RRIRHRPPRLPRPRPRPAQIPRP here?
A: Its value is 0.276.

Q: RRIRSRPPRLPRPRPRPQTHPRP was tested. Which “shrunken log2 fold change” value did it give?
A: Its value is 0.901.

Q: Which “shrunken log2 fold change” value does the source give for RRIRIRPPRLPRPRPRPVPMPRP here?
A: Its value is -0.143.

Q: RRIRDRPPRLPRPRPRPILQPRP was tested. Which “shrunken log2 fold change” value did it give?
A: Its value is -0.0838.

Q: Which “shrunken log2 fold change” value does the source give for RRIRTRPPRLPRPRPRPTMNPRP here?
A: The value was -0.371.

Q: For RRIRPRPPRLPRPRPRPSTNPRP, which “shrunken log2 fold change” value is on record?
A: Its value is -0.301.

Q: RRIRQRPPRLPRPRPRPGINPRP was tested. Which “shrunken log2 fold change” value did it give?
A: Its value is -0.296.

Q: How did the “shrunken log2 fold change” value turn out when RRIRFRPPRLPRPRPRPGNWPRP was run?
A: The value was 0.724.

Q: RRIRNRPPRLPRPRPRPVTIPRP was tested. Which “shrunken log2 fold change” value did it give?
A: The value was -0.463.

Q: RRIRLRPPRLPRPRPRPCWFPRP was tested. Which “shrunken log2 fold change” value did it give?
A: The value was -0.21.

Q: How did the “shrunken log2 fold change” value turn out when RRIRDRPPRLPRPRPRPAYAPRP was run?
A: The value was 0.058.

Q: Which “shrunken log2 fold change” value does the source give for RRIRERPPRLPRPRPRPAPIPRP here?
A: Its value is 0.0258.

Q: RRIRTRPPRLPRPRPRPDAYPRP was tested. Which “shrunken log2 fold change” value did it give?
A: Its value is -0.134.

Q: How did the “shrunken log2 fold change” value turn out when RRIRERPPRLPRPRPRPHKLPRP was run?
A: The value was -0.635.

Q: How did the “shrunken log2 fold change” value turn out when RRIRTRPPRLPRPRPRPMRPPRP was run?
A: Its value is 0.93.

Q: RRIRGRPPRLPRPRPRPTFMPRP was tested. Which “shrunken log2 fold change” value did it give?
A: The value was 0.327.

Q: How did the “shrunken log2 fold change” value turn out when RRIRERPPRLPRPRPRPREFPRP was run?
A: The value was -0.0736.

Q: For RRIRQRPPRLPRPRPRPQRVPRP, which “shrunken log2 fold change” value is on record?
A: The value was -0.182.

Q: RRIRMRPPRLPRPRPRPMTPPRP was tested. Which “shrunken log2 fold change” value did it give?
A: The value was 0.582.

Q: How did the “shrunken log2 fold change” value turn out when RRIRSRPPRLPRPRPRPHAWPRP was run?
A: The value was 0.149.

Q: RRIRGRPPRLPRPRPRPLGIPRP was tested. Which “shrunken log2 fold change” value did it give?
A: The value was 0.178.
